Results on 72 sequences are retold here after the supplement of paper PMC10567573.

± gives the standard deviation.

A short description of this series: protein stability index of a GFP-peptide fusion (GPS, HEK-293T) (PSI 1-6); higher = more stable.
Setting [1] is: treatment: DMSO, c terminus: a fixed tail appended.
The mark [2] stands for this setting: treatment: MLN4924 1 uM, 8 h, c terminus: a fixed tail appended.
Where [3] appears, read: treatment: DMSO, c terminus: native.
The mark [4] stands for this setting: treatment: MLN4924 1 uM, 8 h, c terminus: native.
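Note: 24-mer peptide tiles fused after GFP, lentivirally expressed, FACS-sorted into six equal bins by GFP/DsRed ratio, decoded by Illumina sequencing, PSI is the read-weighted mean bin number.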

For the sequence SRSAAQDLDRMGVMTLPSDLRKHR [PPFIA4], the protein stability index reads like this: under setting [1], 4.54 ± 0.48; under setting [2], 5.22 ± 0.1.

For ILAHLTGTEFMQDPDEEHLKKSSQ [PDLIM7], the protein stability index is, setting by setting: under setting [1], 3.9 ± 0.13; under setting [2], 4.16 ± 0.25.

Consider MWWRGCKIKAIMALVAAILLLVII [VAMP4], for which the protein stability index under setting [1] was found to be 2.89 ± 0.096 and the protein stability index under setting [2] was found to be 2.855 ± 0.027.

For QKVLGKALSLIRFPLMTIEEFAAG [BTBD1], the protein stability index reads like this: under setting [1], 3.06 ± 0.57; under setting [2], 2.52 ± 0.38.

As to KQNGRVAKVKGHRSQKHKERIRLL [C18orf25], the protein stability index by setting is: under setting [1], 3.9 ± 0.28; under setting [2], 3.97 ± 0.29.

On to DYSQLNESTTKESSEASQLEDAAG [FBXO34], for which the protein stability index reads like this: under setting [1], 5.47 ± 0.28; under setting [2], 5.35 ± 0.46.

As to ALGAPSKSPSSPQAAFTQQGMEGI [TBX5], the protein stability index stood at 4.59 ± 0.37 under setting [1] and 4.51 ± 0.19 under setting [2].

Regarding VVTSAREHIYDLRSLENYHFVDEH [CLINT1], the protein stability index amounted to 2.85 ± 0.51 under setting [1] and 3.15 ± 0.45 under setting [2].

As for VITIKSESTFKNTEISFILGQEFD [FABP4], the protein stability index runs as follows: under setting [1], 2.23 ± 0.53; under setting [2], 2.4 ± 0.078.

Take EIPKNCVVAAVGKELIIFRLVAPT [WDR41]: the protein stability index runs as follows: under setting [1], 2.69 ± 0.6; under setting [2], 2.28 ± 0.43.

Consider SDAAFGGILERYWLSSRAAAIKVN [MYORG], for which the protein stability index reads like this: under setting [1], 2.19 ± 0.2; under setting [2], 2.17 ± 0.21.

Turning to ASYSGKAADVWSLGVALFTMLAGH [TRIB3], the protein stability index under setting [1] stood at 2.99 ± 0.43 and the protein stability index under setting [2] was 2.75 ± 0.54.

DSGVQACFNRSREYQLNDSAAYYL [GNAI1]: the protein stability index was determined as 2.8 ± 0.15 under setting [1] and 2.75 ± 0.17 under setting [2].

On to RPVLLSKIEGHQDAVTAALLIPKE [WDFY1], for which the protein stability index reads like this: under setting [1], 3.87 ± 0.28; under setting [2], 3.94 ± 0.34.

In the case of SSEKKRQSSADGSQPPKKKPKTTN [RBBP5], the protein stability index under setting [1] came out at 5.24 ± 0.37 and the protein stability index under setting [2] was 5.28 ± 0.3.

Consider EGNSMRCGRKLAKDGEYCWRWTGF [GMCL1], for which the protein stability index by setting is: under setting [1], 2.49 ± 0.22; under setting [2], 2.11 ± 0.14.

For LCHCGKAFSHKSMRDRHVNMHLNL [ZBTB22], the protein stability index came to 2.21 ± 0.45 under setting [1] and 2.32 ± 0.14 under setting [2].

PARDGVEASAEGPRAVFVLLEERR [TFE3] returned a protein stability index under setting [1] of 4.26 ± 0.27 and a protein stability index under setting [2] of 4.23 ± 0.073.

GATLGQTTSEEAVGGATLAQTTSE [HDAC6]: the protein stability index by setting is: under setting [1], 5.37 ± 0.34; under setting [2], 5.63 ± 0.31.

As to VDEKGEKVRPSHKRCIVILREIPE [LARP4], the protein stability index is, setting by setting: under setting [1], 2.9 ± 0.11; under setting [2], 3.07 ± 0.037.

For ENVLAALEGLNLSILKAMGKTKKD [NECAB1], the protein stability index is 3.12 ± 0.12 under setting [1] and 3.31 ± 0.18 under setting [2].

As for TLITAVELERFVNLHSLALDFCDF [FBXO33], the protein stability index is, setting by setting: under setting [1], 2.47 ± 0.28; under setting [2], 2.95 ± 1.3.

Turning to QEHSNSVGGQDTGATWRTSGLLEE [C18orf25], the protein stability index by setting is: under setting [1], 5.28 ± 0.27; under setting [2], 4.96 ± 0.18.

Take LRDVNHEKAMAEWVKQQAEREAEK [SDE2]: the protein stability index reads like this: under setting [1], 5.19 ± 0.12; under setting [2], 5.42 ± 0.23.

Regarding HAGTVYGGVMYISGGITHDTFQKE [KLHL13], the protein stability index came out at 2.32 ± 0.24 under setting [1] and 2.31 ± 0.22 under setting [2].

As to NWVIPAISAVAVALMYRLYMAED [CYB5A], the protein stability index was 3.92 ± 0.12 under setting [3] and 4.02 ± 0.19 under setting [4].

As to NNWPPLPSFCPVQPCFFQDISMEI [SCAMP3], the protein stability index under setting [1] was 2.4 ± 0.53 and the protein stability index under setting [2] came to 2.55 ± 0.5.

On to DFLEEVEEIVFNLTNNVDLDNTKK [MNAT1], for which the protein stability index under setting [1] was 3.03 ± 0.38 and the protein stability index under setting [2] worked out at 3.18 ± 0.26.

For the sequence ENFKGLAIPYLEHIIHVWEETGSR [VPS39], the protein stability index is, setting by setting: under setting [1], 2.52 ± 0.32; under setting [2], 2.48 ± 0.4.

With KVGKLAATAVGGGFFLLQLANHTG [FUNDC2], the protein stability index came out at 2.38 ± 0.59 under setting [1] and 2.46 ± 0.87 under setting [2].

With KQSLVVAVQDHGQPPLSATVTLTV [PCDHGA10], the protein stability index by setting is: under setting [1], 2.72 ± 0.59; under setting [2], 2.68 ± 0.45.

As for SLKAICTEIANCSLKVKFFDLERE [PLD5], the protein stability index under setting [1] amounted to 2.12 ± 0.17 and the protein stability index under setting [2] was 2.26 ± 0.84.

LQEVLSSDENGGTYVSPPGNEEEE [DDIT3]: the protein stability index is, setting by setting: under setting [1], 5.63 ± 0.27; under setting [2], 5.42 ± 0.3.

For the sequence QTEKLLQFQDLTGIESMDQCRHTL [FAF2], the protein stability index reads like this: under setting [1], 3.82 ± 0.21; under setting [2], 3.66 ± 0.33.

In the case of PPPELMDVSLVGGPADCSPPHPAP [DYRK1B], the protein stability index turned out to be 5.08 ± 0.22 under setting [1] and 5.1 ± 0.11 under setting [2].

The sequence DYTWTEFDEPFLTRNVQSVSIIDT [TRIP13] had a protein stability index under setting [1] of 3.1 ± 0.24 and a protein stability index under setting [2] of 3.19 ± 0.23.

On to LEKEEEKDLVMYSKCQRLFRSPSM [CDC25B], for which the protein stability index runs as follows: under setting [1], 3.69 ± 0.39; under setting [2], 3.57 ± 0.18.

Turning to RCEMEAQNQEYKMLLDIKTRLEQE [KRT15], the protein stability index runs as follows: under setting [1], 4.44 ± 0.17; under setting [2], 4.6 ± 0.18.

With VRLGSFRSPRAGAGALLRLPSERL [PRPH], the protein stability index is, setting by setting: under setting [1], 2.96 ± 0.16; under setting [2], 3.23 ± 0.24.

In the case of LLLLDLLALYTPVGAAGSARQELL [ANKRD9], the protein stability index is, setting by setting: under setting [1], 2.89 ± 0.38; under setting [2], 2.88 ± 0.27.

As for EAFAASAVGSGERRGGGPVFPAPV [ZBTB22], the protein stability index was 3.93 ± 0.32 under setting [1] and 4.03 ± 0.28 under setting [2].

Turning to EQVRFLMKSYSFLREAVPGILRAR [SOAT2], the protein stability index is 1.85 ± 0.62 under setting [1] and 2.1 ± 0.51 under setting [2].

For the sequence GRYPLIQTLRQELSLPYLPSGTPE [CHIT1], the protein stability index by setting is: under setting [1], 3.51 ± 0.26; under setting [2], 3.47 ± 0.27.

On to SQAQETTIIASNAEEAEILHSACG [TOR1AIP2], for which the protein stability index is 5.26 ± 0.29 under setting [1] and 5.21 ± 0.27 under setting [2].

Regarding LQDVRVNQSRCEMKTFVSPEAISP [TRIM15], the protein stability index is, setting by setting: under setting [1], 4.01 ± 0.17; under setting [2], 4.09 ± 0.29.

Turning to ECNECGKAFSRSSGLFNHRGIHNI [ZSCAN9], the protein stability index under setting [1] came to 2.48 ± 0.59 and the protein stability index under setting [2] stood at 2.16 ± 0.31.

Regarding LEGAQAPLAVEEDASSSTSTSSSF [MAGEA10], the protein stability index is, setting by setting: under setting [1], 5.66 ± 0.14; under setting [2], 5.55 ± 0.2.

Take TYTYTSRPRALPCQRSRYRDSLTQ [RSPH3]: the protein stability index is, setting by setting: under setting [1], 3.18 ± 0.23; under setting [2], 3.18 ± 0.14.

Turning to ESPIPEDKDRRFVFSYFLATDMIS [EFHC1], the protein stability index was 2.33 ± 0.28 under setting [1] and 2.23 ± 0.29 under setting [2].

Consider LVNHVNIRLQAELEEGENPVPAFQ [SMG5], for which the protein stability index came to 4.04 ± 0.091 under setting [1] and 4.07 ± 0.17 under setting [2].

Take DGDAPGSLLPAQVAACAQTVVSLA [CEBPD]: the protein stability index reads like this: under setting [1], 4.26 ± 0.19; under setting [2], 4.12 ± 0.39.

For the sequence RIPYTKSQTEAHYSCQSKEILRYM [P2RY14], the protein stability index is, setting by setting: under setting [1], 2.42 ± 0.32; under setting [2], 2.45 ± 0.49.

As for WRNLGVQQSQGWVHYMIHEPEPHI [CKS1B], the protein stability index reads like this: under setting [1], 2.24 ± 0.23; under setting [2], 2.28 ± 0.18.

For the sequence AAIGVTTSPVLPSLIQLLGRNFIL [HACD3], the protein stability index stood at 2.67 ± 0.19 under setting [1] and 2.55 ± 0.6 under setting [2].

As for ANGEVTYSFRKLPDTQLLKFQLNK [PCDHGA10], the protein stability index amounted to 2.83 ± 0.33 under setting [1] and 2.85 ± 0.24 under setting [2].

Regarding DCPKIVEPHGKMFNEQTWEVSQQD [ZSCAN9], the protein stability index by setting is: under setting [1], 5.16 ± 0.089; under setting [2], 5.18 ± 0.11.

For the sequence LVLRRQLKNKCCPPPCKFGEGKLS [C22orf31], the protein stability index is, setting by setting: under setting [1], 2.21 ± 0.31; under setting [2], 2.52 ± 0.34.

Consider QLREALKILAERVLILETMIGLYE [EMID1], for which, under setting [1], the protein stability index was 2.31 ± 0.27.

With MVVSREEVELAYQEAMFNMATLNR [SEPHS2], the protein stability index came out at 2.93 ± 0.29 under setting [1] and 3.03 ± 0.2 under setting [2].

As for VLEWGAEGVAGKSGLEKEVQRLTS [FCHSD1], the protein stability index runs as follows: under setting [1], 4.1 ± 0.16; under setting [2], 4.09 ± 0.22.

As to PIPHVFSAGTGSAILPHFHHAFR [PLAGL1], the protein stability index under setting [3] came out at 3.04 ± 0.22 and the protein stability index under setting [4] was found to be 3.17 ± 0.16.

On to LLVLCEDHRGRMVKHQCCPGCGYF [EHMT1], for which the protein stability index by setting is: under setting [1], 2.36 ± 0.087; under setting [2], 2.27 ± 0.36.

With ELVSADVIDLFDEQGLSALHLAAQ [RIPK4], the protein stability index is, setting by setting: under setting [1], 3.02 ± 0.78; under setting [2], 3.56 ± 0.4.

Turning to KKKNTNKQEMGTYLRFIVSRMKER [ZMYND11], the protein stability index under setting [1] amounted to 2.47 ± 0.16 and the protein stability index under setting [2] came to 2.92 ± 0.25.

Consider SGPEAARAGGWVSGEEFYMLTRRV [PKD2L1], for which the protein stability index runs as follows: under setting [1], 2.69 ± 0.29; under setting [2], 2.96 ± 0.49.

Turning to HTMEEEEDDDWGEDTTEEAQRRRM [EIF5], the protein stability index was 5.55 ± 0.35 under setting [1] and 5.63 ± 0.28 under setting [2].

AAAFPTEDSRTSKESMSEADRAQK [EHMT1]: the protein stability index runs as follows: under setting [1], 5.59 ± 0.25; under setting [2], 5.514 ± 0.053.

For AVGGRLRLVPGGQRPADVPEPGRA [HAGHL], the protein stability index was determined as 4.22 ± 0.38 under setting [1] and 4.16 ± 0.43 under setting [2].

Take ARLKKVLIVGAPIWFRVPYSIISL [PTPN9]: the protein stability index was found to be 3.32 ± 0.79 under setting [1] and 2.58 ± 1 under setting [2].

Consider LAYLPFKLEKSIDSYYRLVIHRAL [PCDHGA10], for which the protein stability index under setting [1] was 2.25 ± 0.62 and the protein stability index under setting [2] worked out at 2.23 ± 0.81.

On to KFKESFAEMNRGSNEWKTVVGGAM [COX4I1], for which the protein stability index runs as follows: under setting [1], 3 ± 0.13; under setting [2], 3.2 ± 0.29.

Turning to VPVLKPMDLMVEVSPRRIFANGHT [PPP2R2C], the protein stability index by setting is: under setting [1], 2.59 ± 0.48; under setting [2], 2.75 ± 0.14.
